This note sets out measurements from paper PMC10496494 (2023).

This assay deals with NPM1 (human wildtype nucleophosmin, residues 1 to 290), purified recombinant (human, UniProt P06748 1-290). Put plainly: SPR; NPM1 immobilised, DDX24^WT as analyte.
Sequence of NPM1 (human wildtype nucleophosmin, residues 1 to 290), purified recombinant (P06748 1-290): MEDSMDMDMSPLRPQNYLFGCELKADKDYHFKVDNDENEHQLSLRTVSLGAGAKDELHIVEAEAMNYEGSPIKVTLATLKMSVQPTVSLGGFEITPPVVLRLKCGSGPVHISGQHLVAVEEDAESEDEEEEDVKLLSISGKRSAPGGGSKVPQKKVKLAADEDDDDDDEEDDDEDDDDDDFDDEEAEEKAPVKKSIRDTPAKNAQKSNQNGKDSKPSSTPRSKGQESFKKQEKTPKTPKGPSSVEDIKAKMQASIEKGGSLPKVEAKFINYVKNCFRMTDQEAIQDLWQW

B1: DDX24^WT (human wildtype DDX24, residues 28 to 859), purified recombinant (domain or fragment)
chain: KWKEVKIDPNMFADGQMDDLVCFEELTDYQLVSPAKNPSSLFSKEAPKRKAQAVSEEEEEEEGKSSSPKKKIKLKKSKNVATEGTSTQKEFEVKDPELEAQGDDMVCDDPEAGEMTSENLVQTAPKKKKNKGKKGLEPSQSTAAKVPKKAKTWIPEVHDQKADVSAWKDLFVPRPVLRALSFLGFSAPTPIQALTLAPAIRDKLDILGAAETGSGKTLAFAIPMIHAVLQWQKRNAAPPPSNTEAPPGETRTEAGAETRSPGKAEAESDALPDDTVIESEALPSDIAAEARAKTGGTVSDQALLFGDDDAGEGPSSLIREKPVPKQNENEEENLDKEQTGNLKQELDDKSATCKAYPKRPLLGLVLTPTRELAVQVKQHIDAVARFTGIKTAILVGGMSTQKQQRMLNRRPEIVVATPGRLWELIKEKHYHLRNLRQLRCLVVDEADRMVEKGHFAELSQLLEMLNDSQYNPKRQTLVFSATLTLVHQAPARILHKKHTKKMDKTAKLDLLMQKIGMRGKPKVIDLTRNEATVETLTETKIHCETDEKDFYLYYFLMQYPGRSLVFANSISCIKRLSGLLKVLDIMPLTLHACMHQKQRLRNLEQFARLEDCVLLATDVAARGLDIPKVQHVIHYQVPRTSEIYVHRSGRTARATNEGLSLMLIGPEDVINFKKIYKTLKKDEDIPLFPVQTKYMDVVKERIRLARQIEKSEYRNFQACLHNSWIEQAAAALEIELEEDMYKGGKADQQEERRRQKQMKVLKKELRHLLSQPLFTESQKTKYPTQSGKPPLLVSAPSKSESALSCLSKQKKKKTKKPKEPQPEQPQPSTSAN
As for B1, the equilibrium dissociation constant (Kd) was 2.4 nM.

What is called Kd is a measure of binding affinity in units of concentration.
